The results in this text go back to the domain aggregation screens of Martell et al. (2025).

Where only a bound is given, the exact number is not on record here.

A short description of the data set: soluble fraction after stress (log2 fold change); higher = more stays soluble; pooled small domains, quantitative proteomics. Conditions: stress: 50 degC. A digest of the protocol:
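Quantitative proteomics served as the high-throughput read-out for pooled custom libraries of small protein domains. Each was stressed at 50°C. Aggregation propensity is expressed as the base-two log fold change in soluble protein after stress. A higher value means a larger share of the protein remains in solution.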
“HMNNKVAVKSGYYFEIFNKEEIPTTLAKTKQKVKINNIQYDLYQGMSLDDERKIDDMFGDRMGYSIDDY”: the “soluble fraction (log2)” value was -1.04. Under “HMNNKVAVKSGYYFELFDKDEIPATLEKMKQKVKIDNIKYDLYQGTSLEDERKIDTMFGEKMGYSIDDYI” stands 0.0224. As for “HMNNLVTRREVEILGWIKEGKTTSDIAGILSLSPFTVKNHVQNILKKLGARSRSHAVAQAINLGLLH”, the “soluble fraction (log2)” value is -0.773.

“HMNNPISMQKLRQVIRLYGQGKGTKSINSMLGVSRNTIKKYLQVYHSSGINYESFLAMSDKELSAVFLV”: the “soluble fraction (log2)” value is -0.398. On to “HMNNQVTFSKFLNEVEDGRVVEVNIQGNNITGVLSDGSKFKTFSPNYPNLVEKLSEKGVSINASPL”, for which the “soluble fraction (log2)” value stood at 0.1. “HMNNTIKFSVDENNSGKRLDVYLTENINHLTRSFLKKLIEKEQVKLNKKVLTSPATKVKTKDQITINIIE”: the “soluble fraction (log2)” value worked out at 0.172.

Turning to “HMNNWYESSIKSLVEEYFREHGFSVVFDSSEFWDVFIEKYHKQIPSSQIALFDQVAAEARSYAFNKK”, the “soluble fraction (log2)” value was determined as 0.116. For “HMNPETLTNGSVVKMSKANLSDELIIDMINNSPARFDLSSGALRSLEGEGVSKAVIESMKRATSG”, the “soluble fraction (log2)” value worked out at 0.191. For the sequence “HMNPETLTNSSVIKMSKANLSDELITDMILNSPVKFDLSAGAIKTLESEGVTPAVLESMKNAASK”, the “soluble fraction (log2)” value amounted to 0.154. Under “HMNPFTHEEINLMSIYNAAGTREGLIAALTEMWGYLDAEETELRELADSALAKLRGITDAEYAALELE” stands -0.633; under “HMNPGAYQVKAGEGLIGLSRRYNVPVDVLASVNNLNTTSSLRVGQTITIPTAAQVNRITQQAQ”, 0.287. For “HMNPGHAERGKEIVEVFLRNNGELSMREIAEKSNITITQARRRVNKLLDQGIVEATAPVQSRNRKYRIK”, the “soluble fraction (log2)” value came to 0.134. Turning to “HMNPIEAQIEELKNKDQKTAYQALKHLLAISETRAEVSYYFDRFVALLQDPQSYVRTRGLLLIGA”, the “soluble fraction (log2)” value is 0.271. Regarding “HMNPLLSAYLAEVERGLQGLTAGRRRLVLRELEAHLLDEAEARGLLTEEDMRALLMEKEPPERLAQEIAQ”, the “soluble fraction (log2)” value was -0.0936.

Turning to “HMNPMLEPAGEIRLSDGVLLRWQSERLPGDDTVRGPGSLYELGLYRVKVRVSAPQQGVRESSVELAGWRQV”, the “soluble fraction (log2)” value is -0.0771. In the case of “HMNPMRYLVVPSQETETWKEYLVSKEWLERKYRIETEGDNRAIPLSNLFPKIVPIELSNLEIIEKEAFS”, the “soluble fraction (log2)” value was -0.24.

On to “HMNPNEVQIPDLVNKTEDEAEQILKDLKLKLVVKSEEYNENIEKGKIISQDPPYQENYTIKEHSEISIVIS”, for which the “soluble fraction (log2)” value amounted to 0.42. To “HMNPSRPASKEELLGLFEHLERALDAVTFFRPAEKKPVVVQTLRAMLTKASFTEQDIRTMRGVIAALEN” belongs -1.5; to “HMNPYQDSILLWKSFDTPLTNEDFMGLSKEELRIARNEIYAAYGRIFTSQDLIDYFNSKPWYQGTTPA”, -0.202; to “HMNQDQDLSRIKGIGPEMVDRLHAQGVETLEQIAAMQMEQLKKLDQQISGNGKAVREQWAEQAKQLLTT”, 0.0638. “HMNQEFRMPNAIKGVELSEENKQQLTQGEKVFLEGMTSAKGSLFDAYVYIDQEKKTLAFDFPEK”: the “soluble fraction (log2)” value turned out to be 0.184. Regarding “HMNQKTQMTKQILAESLKKLMLHHSFEKITIKDITDAAGFIRPTFYNHFKDKYDLVEWIFTEEI”, the “soluble fraction (log2)” value is -0.364. “HMNQKVRQLLSQAQAEMERKNYKQAIKLLDQALAIEPHSGELHFMKGYAWMSMGEFEKALESLYEARNYA”: the “soluble fraction (log2)” value is -0.399. With “HMNQPRQRKVIFELIDERNALERVLMHFAHLEKQVEKIDERKYQVTLYYDKEDETEILIRVLSFG”, the “soluble fraction (log2)” value is -1.15.

With “HMNQTEKSKITHNELLKAAHSLFIEQGFNHTTITDIVTRAGYSTGIFYKHYKTKTDILVELWTNYIE”, the “soluble fraction (log2)” value was -2.31. Under “HMNQWQLLSEDGAILGTRVLYHPHETEQPFTRSLSGVKIPAHVQSVTIRAGDLVHGFGGREIQMQLPPIV” stands -0.0987; under “HMNREENIQIGRDLLERELRKQGMDLQENLRQEVLLDGAKKLGFNNTDDLLAAIGDLKVTPAMFIGKIA”, 0.0695. As to “HMNREMLVHAIGQLKEKYASALELKYWHGFTEREIAAFLNISEKAANSRLVRGRVMLRKLLE”, the “soluble fraction (log2)” value worked out at 0.131. As for “HMNREYELTAEESGQRLDKYLAGEMTDLSRSRIKELVQAGEILVNGKKSKVSYKVQKDDLIQVIVLPLE”, the “soluble fraction (log2)” value is -0.285. As to “HMNRITEFVVPEGTKKIRADKLLAESFPDHSRSDFHRAFDASLVRLEGQPISKNRKISQGDVLVFEMPEI”, the “soluble fraction (log2)” value amounted to 0.281. Under “HMNRPQDLGEPYDGQFREHPEAWAFYAAQSPSYRRSASWWVLGAKQEVTRQRRLAALIDASAQGTRIPALT” stands -1.09; under “HMNRREFQFSEGSSNKFWSIELRDQSFIVHYGKIGTNGQAQEKTFATADAAKKEHDKLIAEKTKKGYVEVQ”, -0.392. Under “HMNRTKYYDFEGHPAKVVRLTLPVYLNKIGDEVVVYDSQKFAREASPISESQYNRMVAEIFQP” stands -0.354. As to “HMNSEAVQNVIDKISALPDDITAKAKSQIEEARAAYEALSDSEKARVTNYSTLVAAEKKLASVVKD”, the “soluble fraction (log2)” value is 0.325. To “HMNSEERVLDTASKWLVKLDEGLDESEAQVLKVWLATPLHRDTFLEMVALWDKMSVLNELADIV” belongs -1.78; to “HMNSISDSELKALIKNNYLKFLKRIASDEEIEYHFNQIKNKTILLDELDSIFQNSQEYKDLVEHNNKIQN”, -0.0724; to “HMNSKQELAYQTIRARIVDGSYGPGYRIVIDEVARELGVSPIPVREAVRRLEAEGLITYTRHAGARVVA”, -0.184. As for “HMNSLQLGSRGPTVSALQAKLNTMLVPSPRLVADGSFGPKTAQAVKAFQQMKRLVADGVVGPKTAAALGLS”, the “soluble fraction (log2)” value was -0.00877. Under “HMNSLQNNLKQARTRVGLTQGVLASQAGISRQAYSTLESGSANPSTEVALRLAQALQERVELLFYLPER” stands -0.705. Under “HMNSNKFANAAAVAVAEKPADSYNPLFIYGPSGVGKTHLLYAIANEIHKHHPDYNIVYIKGDQFTNELIN” stands -0.0439. For “HMNSNLSLTSYEEKIFFLLEKEKNLDELILESSFKAGEILSILMDLEIKHAIVSIPGGKYRRK”, the “soluble fraction (log2)” value is -2.84.

Turning to “HMNSNQESFENWLSANSWYNKDRAMRVFADSLGQELRNSGVSFEKALTQISAEVRKEFSHKFQ”, the “soluble fraction (log2)” value is -0.163. To “HMNSNSLSFSKFMQEVEAGRVIEVQIKGNDIQGELSDGSKFKTYSPNYPNLVDKLSENKVSIVATPL” belongs 0.038. With “HMNSNTIIFSQFLSEVDNGRVTQVQIQGNNIKGTLSNGKDFITYAPNDPNLIEKLTSKGVSISASPID”, the “soluble fraction (log2)” value was determined as 0.0608.

As to “HMNSNTIIINDIMTKIGKEVKNFTEIYSIILKALAEHGEEYVRTNTEYALKNFTGNFDIFLEQLLLK”, the “soluble fraction (log2)” value was -0.201. To “HMNSRAERKEAAKEAIRNLLREGMTFEELTGPWLEKRFAEEPFNRGARSWQMLISEIKEEPEFQHL” belongs 0.00166; to “HMNSRQPEEEALFELLAKNPYSDEQLEEIRIAIGSGISYKDVLVIADIKNTAKQMKKLRLKFTKDTG”, -0.122. Under “HMNSTEQQTERFLATLTSLGGNAGNQRLQEALGWQGSTYQRIKQHLLDEGRIRTGRGRGGSVALSEATAT” stands 0.143; under “HMNSTGVYQRPDGFWEYRFTLSINGKKLPRRKSTDLMGNKLKTKREAIKAREEAIIALRTEKTI”, -0.994; under “HMNSTVKVPNVVGMSVPQAKALLEQNHLLVQGIREVSTDKAPAGIVINQLPYSDAEVKEERHIYLTVSKGK”, at least 0.62. Under “HMNSVKSPMPGTILGLKVSVGDTVKVGDELLVLESMKMENMINSPIDGTVSKILISEGDSVQHGQELII” stands 0.215; under “HMNSVSARRSAAITAISTGRIHSQEDLVQALKKAGYPVTQATASRDIEEIGAVRIRNQKGEMVYAIS”, 0.264; under “HMNTEEITYSRFQQMLEAGEISQVSIESNRILILPSEETGIEKVLYTGIINDPGLVERLNSAGVEFRAPIE”, -0.00156. For the sequence “HMNTEFDVPDVVGKTLDEAEFVLKGSNLKRGLIMPVDDPSKAPGTIVRQNPEAGAGNKIRVGDVVDLWVVG”, the “soluble fraction (log2)” value was 0.168. Turning to “HMNTELSPKVWDVVQEFILYRKEIKAPMTEHAVKLLIGQLQKLSSDPDEQIEILRQSIVNGWKGIFSLK”, the “soluble fraction (log2)” value is -0.183. To “HMNTGTTISYSDFRDRVASGTVKEVQISDDRITGVLKNDETFNTVPVGNDSGLTKLLDDNGVTYSGTP” belongs 0.174; to “HMNTIFSVNGPVVKVKDTKDFSMMEMVYVGEKKLIGEVIGITESFTTIQVYEVTTGLKVGEPVYTTGAPM”, -0.38; to “HMNTIIHPIRLAYVDSGSIKSMAEQAEIDVKILTSEANSQIFWAIGDEKQIDRLYNLISQVDIIQNK”, -0.211. Turning to “HMNTKHVFIIEQDDEKKRLDIFLVEKLQDSRSFLKKGIVEGWVKVNESVVKPNYKLKQKDQITVIIPP”, the “soluble fraction (log2)” value was -0.278. In the case of “HMNTNDFTIGTRVRTTKKGNGSSDGTSNTARSGIEGTITRIIPEAKYPYLVSTTVPMGWYKKDALEK”, the “soluble fraction (log2)” value is 0.0875. To “HMNTPLYLKIREQIFDALRSGRWAANDPLPSETKLASEFEVSQGTIRKAIDDLVAQNILYRHQGRGTFIRR” belongs -0.5. With “HMNTSSVTVHYQDEAGKSLADTVTLTGKVGETYSSEQKKITGYNFKEVRGNPKGQFTTEAQTVTYVYTQAA”, the “soluble fraction (log2)” value came out at 0.156.

As for “HMNTWVEIFRAEDQGQIRDASLVLLAVKVAHRVDMNSSSAPWSLMVPAQDQQRAHHELTTYWQENAH”, the “soluble fraction (log2)” value is -1.43.

As for “HMNVAELIEGHEAEIAEVLKEFSLLYLMRLADELGEMTKSSSGNGPFQVLKGLVYEEIARRG”, the “soluble fraction (log2)” value is -1.09.

“HMNVAVPTPADKRKVRVMKADINAKLRVNDANGAYAVYEELKEWVTLKGFTEWNDDLSKLSETMGSMKRKV”: the “soluble fraction (log2)” value is -0.0289. To “HMNVDALVGQRGRVTQTFDPGLRLGRVAVGGDDWRAETTTDQPLREGDLVEVVSVESNTLIVRPIA” belongs -0.0828; to “HMNVDSLIGQTARVIVDINNNDSIGYALVGGQEWTARAENDNDIIPKDTLVEIVGVSGVKLIVRRKE”, -0.044. As for “HMNVDSLVGSEARVTAEIDNRKETGTAMVNGQEWTARAESDEEIYPVGTIVEIRKIQGVKLIVSTH”, the “soluble fraction (log2)” value is -0.162.
